According to article PMC9482650, “Quantitative fragmentomics allow affinity mapping of interactomes” (Nature Communications, 2022):

Assays:
Assay in all cases: holdup assay
Design in all cases: key: below the threshold = too weak to quantify, mostly under pKd 3.1 to 4
Settings in all cases: plain residues with an end cap or a label only (N-terminal biotin on a linker: ado-ado)
APBA1_1, Q02410 = molecular target: T1, APBA1_1, Q02410
T1 sequence (Q02410 651-752, limits assumed, looked up): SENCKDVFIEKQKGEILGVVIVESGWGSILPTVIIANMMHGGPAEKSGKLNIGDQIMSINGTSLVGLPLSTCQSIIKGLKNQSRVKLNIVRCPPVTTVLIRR

GRIP2_7, Q9C0E4 = molecular target: GRIP2_7, Q9C0E4
SNTG2, Q9NY99 = molecular target: T2, SNTG2, Q9NY99
T2 sequence (Q9NY99 68-166, limits assumed, looked up): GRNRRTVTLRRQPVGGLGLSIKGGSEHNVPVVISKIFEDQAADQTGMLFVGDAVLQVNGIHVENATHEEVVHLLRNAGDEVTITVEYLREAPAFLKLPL

FRMPD3, Q5JV73 = molecular target: FRMPD3, Q5JV73
RAPGEF6, Q8TEU7 = molecular target: T3, RAPGEF6, Q8TEU7
T3 sequence (Q8TEU7 525-625, limits assumed, looked up): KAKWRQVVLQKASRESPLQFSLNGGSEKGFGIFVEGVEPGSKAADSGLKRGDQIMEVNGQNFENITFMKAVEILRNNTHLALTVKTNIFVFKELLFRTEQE

DLG1_3, Q12959 = molecular target: DLG1_3, Q12959
GRASP, Q7Z6J2 = molecular target: GRASP, Q7Z6J2
TX1BP3, O14907 = molecular target: T4, TX1BP3, O14907
T4 sequence (O14907 10-122, limits assumed, looked up): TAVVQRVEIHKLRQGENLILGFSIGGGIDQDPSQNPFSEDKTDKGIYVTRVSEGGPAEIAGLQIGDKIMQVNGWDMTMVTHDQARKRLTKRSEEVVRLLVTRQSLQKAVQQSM

DLG3_1, Q92796 = molecular target: T5, DLG3_1, Q92796
T5 sequence (Q92796 125-227, limits assumed, looked up): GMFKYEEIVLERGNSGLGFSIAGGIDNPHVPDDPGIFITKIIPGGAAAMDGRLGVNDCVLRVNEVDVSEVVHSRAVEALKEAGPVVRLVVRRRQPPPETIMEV

Inadl_9, Q8NI35 = molecular target: Inadl_9, Q8NI35
HTRA2, O43464 = molecular target: HTRA2, O43464
LNX1_1, Q8TBB1 = molecular target: LNX1_1, Q8TBB1
MAGI2_6, Q86UL8 = molecular target: MAGI2_6, Q86UL8
Inadl_10, Q8NI35 = molecular target: Inadl_10, Q8NI35
MAGI3_2, Q5TCQ9 = molecular target: MAGI3_2, Q5TCQ9
LIN7C, Q9NUP9 = molecular target: T6, LIN7C, Q9NUP9
T6 sequence (Q9NUP9 88-185, limits assumed, looked up): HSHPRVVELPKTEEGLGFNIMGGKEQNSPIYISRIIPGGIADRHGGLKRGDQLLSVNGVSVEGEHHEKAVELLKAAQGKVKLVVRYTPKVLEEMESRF

PCLO, Q9Y6V0 = molecular target: T7, PCLO, Q9Y6V0
T7 sequence (Q9Y6V0 4491-4600, limits assumed, looked up): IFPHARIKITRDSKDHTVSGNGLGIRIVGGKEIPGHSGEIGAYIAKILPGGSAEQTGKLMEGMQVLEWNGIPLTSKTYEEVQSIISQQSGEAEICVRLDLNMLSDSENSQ

APBA2_1, Q99767 = molecular target: T8, APBA2_1, Q99767
T8 sequence (Q99767 563-664, limits assumed, looked up): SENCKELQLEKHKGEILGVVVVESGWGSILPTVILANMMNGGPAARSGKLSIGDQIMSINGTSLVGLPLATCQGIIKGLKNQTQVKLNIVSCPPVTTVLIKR

LNX1_2, Q8TBB1 = molecular target: LNX1_2, Q8TBB1
ARHGEF12, Q9NZN5-2 = molecular target: ARHGEF12, Q9NZN5-2
DLG3_2, Q92796 = molecular target: T9, DLG3_2, Q92796
T9 sequence (Q92796 221-321, limits assumed, looked up): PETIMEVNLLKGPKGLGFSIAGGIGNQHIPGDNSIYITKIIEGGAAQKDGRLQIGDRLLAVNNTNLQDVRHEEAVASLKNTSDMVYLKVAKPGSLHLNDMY

LIN7A, O14910 = molecular target: T10, LIN7A, O14910
T10 sequence (O14910 103-200, limits assumed, looked up): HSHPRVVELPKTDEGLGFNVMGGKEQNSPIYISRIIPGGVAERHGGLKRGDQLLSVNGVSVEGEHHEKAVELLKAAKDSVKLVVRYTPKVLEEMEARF

APBA2_2, Q99767 = molecular target: T11, APBA2_2, Q99767
T11 sequence (Q99767 654-744, limits assumed, looked up): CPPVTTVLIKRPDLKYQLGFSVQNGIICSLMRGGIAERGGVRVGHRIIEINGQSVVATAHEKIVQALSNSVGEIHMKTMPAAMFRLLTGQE

LIMK2, P53671 = molecular target: LIMK2, P53671
PARD3B_1, Q8TEW8 = molecular target: T12, PARD3B_1, Q8TEW8
T12 sequence (Q8TEW8 196-299, limits assumed, looked up): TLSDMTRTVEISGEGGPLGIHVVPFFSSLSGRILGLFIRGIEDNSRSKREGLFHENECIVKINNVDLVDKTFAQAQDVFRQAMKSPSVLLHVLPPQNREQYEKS

Measured: pKd

Sequence of MAGI2_6, Q86UL8 (Q86UL8 1141-1229): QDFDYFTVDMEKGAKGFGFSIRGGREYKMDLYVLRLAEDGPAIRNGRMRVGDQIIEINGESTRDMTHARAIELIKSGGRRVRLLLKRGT
Sequence of Inadl_9, Q8NI35 (Q8NI35 1530-1615): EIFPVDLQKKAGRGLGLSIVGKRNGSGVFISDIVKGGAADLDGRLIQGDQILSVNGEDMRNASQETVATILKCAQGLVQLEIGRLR
Sequence of LNX1_2, Q8TBB1 (Q8TBB1 371-470): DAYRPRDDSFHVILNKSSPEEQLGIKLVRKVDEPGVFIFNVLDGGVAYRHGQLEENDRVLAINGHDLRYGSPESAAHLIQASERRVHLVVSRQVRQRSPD
Sequence of Inadl_10, Q8NI35 (Q8NI35 1673-1763): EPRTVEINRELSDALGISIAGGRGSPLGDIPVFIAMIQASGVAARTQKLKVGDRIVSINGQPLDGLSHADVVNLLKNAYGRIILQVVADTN
Sequence of LNX1_1, Q8TBB1 (Q8TBB1 261-371): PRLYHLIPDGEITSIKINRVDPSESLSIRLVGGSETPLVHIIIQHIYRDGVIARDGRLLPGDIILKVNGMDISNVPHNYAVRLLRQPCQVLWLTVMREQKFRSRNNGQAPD
Sequence of GRASP, Q7Z6J2 (Q7Z6J2 96-193): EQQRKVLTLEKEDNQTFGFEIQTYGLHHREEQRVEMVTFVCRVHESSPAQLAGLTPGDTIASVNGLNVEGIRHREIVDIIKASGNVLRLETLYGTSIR
Sequence of FRMPD3, Q5JV73 (Q5JV73 12-100): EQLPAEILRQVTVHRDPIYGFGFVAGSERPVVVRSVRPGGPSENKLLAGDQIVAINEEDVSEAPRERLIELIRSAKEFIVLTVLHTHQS
Sequence of HTRA2, O43464 (O43464 355-458): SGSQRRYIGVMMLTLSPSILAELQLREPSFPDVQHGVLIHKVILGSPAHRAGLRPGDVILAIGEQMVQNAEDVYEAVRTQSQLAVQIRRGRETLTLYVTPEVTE
Sequence of ARHGEF12, Q9NZN5-2 (Q9NZN5 other isoform, or with tags, fused parts or gaps): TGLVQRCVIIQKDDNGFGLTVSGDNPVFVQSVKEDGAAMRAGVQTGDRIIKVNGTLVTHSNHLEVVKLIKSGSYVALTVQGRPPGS
Sequence of MAGI3_2, Q5TCQ9 (Q5TCQ9 398-503): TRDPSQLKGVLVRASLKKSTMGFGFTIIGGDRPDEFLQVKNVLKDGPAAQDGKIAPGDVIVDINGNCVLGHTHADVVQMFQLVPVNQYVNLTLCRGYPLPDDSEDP
Sequence of GRIP2_7, Q9C0E4 (Q9C0E4 934-1023): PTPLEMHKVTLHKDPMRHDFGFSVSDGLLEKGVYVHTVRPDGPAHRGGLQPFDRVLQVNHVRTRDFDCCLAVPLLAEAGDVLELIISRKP
Sequence of DLG1_3, Q12959 (Q12959 457-571): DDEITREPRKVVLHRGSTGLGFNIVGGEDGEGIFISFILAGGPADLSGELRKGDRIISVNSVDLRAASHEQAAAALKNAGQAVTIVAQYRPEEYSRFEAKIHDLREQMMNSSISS
Sequence of LIMK2, P53671 (P53671 143-248): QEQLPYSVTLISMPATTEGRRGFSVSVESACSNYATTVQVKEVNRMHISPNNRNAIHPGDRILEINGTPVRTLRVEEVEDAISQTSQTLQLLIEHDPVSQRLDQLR

EFKQTSSFLV [JAM1, Q9Y624]
3.56: GRASP, Q7Z6J2
3.6: LNX1_1, Q8TBB1
4.26: LNX1_2, Q8TBB1
3.78: HTRA2, O43464
4.72: PARD3B_1, Q8TEW8
4.2: DLG3_2, Q92796
3.86: GRIP2_7, Q9C0E4 | Inadl_9, Q8NI35
below the threshold: all other assays above

SGDGKTSVWI [GJC1, P36383]
3.54: Inadl_10, Q8NI35
4.37: GRIP2_7, Q9C0E4
4.77: PARD3B_1, Q8TEW8
4.03: LNX1_2, Q8TBB1
4.16: DLG3_2, Q92796
3.85: Inadl_9, Q8NI35
4.25: HTRA2, O43464
3.69: APBA1_1, Q02410
3.61: ARHGEF12, Q9NZN5-2
3.73: MAGI2_6, Q86UL8
below the threshold: all other assays above

GNDPDRGTSI [GRID2, O43424]
3.67: LNX1_1, Q8TBB1
3.58: MAGI2_6, Q86UL8
4.25: DLG3_2, Q92796
below the threshold: all other assays above

EPAKETTTNV [SLC2A3, P11169]
3.48: DLG3_1, Q92796
3.97: MAGI2_6, Q86UL8
4.15: DLG3_2, Q92796
3.69: GRASP, Q7Z6J2
3.6: DLG1_3, Q12959
4.03: SNTG2, Q9NY99
3.87: ARHGEF12, Q9NZN5-2
4.12: TX1BP3, O14907
4.05: LIN7C, Q9NUP9
below the threshold: all other assays above

DFKHTKSFII [JAM2, P57087]
4.2: DLG3_2, Q92796
4.95: PARD3B_1, Q8TEW8
3.88: GRIP2_7, Q9C0E4 | HTRA2, O43464
below the threshold: all other assays above

PGKKPEDSRV [SLCO2B1, O94956]
3.54: TX1BP3, O14907 | MAGI3_2, Q5TCQ9
3.83: SNTG2, Q9NY99
below the threshold: all other assays above
